Reference: the supplement of paper PMC7125110
± gives the standard error. For part of these data: Variants at the floor of the assay were thinned out.

B1: glmS ribozyme (parent)
chain: AUAAAAGCGCCAGAACUACAGAAAUGUAGUUGACGAGGAGGAGGUUUAUCGAAUUUUCGGCGGAUGCCUCCAAA

What was measured:
Details in all cases: with glucosamine-6-phosphate
glucosamine-6-phosphate [1] = variants of: B1; assay: kcat; higher = faster cleavage; RNA array
How it was run: (§1)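 Tiles bearing barcoded ribozyme variants, transcribed in situ by E. coli RNA polymerase on sequenced MiSeq chips, were imaged over ~14 h at 37 °C using a hybridised Cy3 probe. Glucosamine-6-phosphate was supplied at 40 μM to 10 mM in HEPES/KCl/Mg(OAc)2 buffer. kobs came from one- or two-exponential decay fits to normalised per-tile medians, and weighted Michaelis–Menten fits then provided kcat and KM.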

glucosamine-6-phosphate [2] = variants of: B1; assay: KM; higher = weaker cofactor use; RNA array
How it was run: as §1

glucosamine-6-phosphate [3] = variants of: B1; assay: self-cleavage kobs at 40 uM GlcN6P; higher = faster cleavage; RNA array
How it was run: as §1

glucosamine-6-phosphate [4] = variants of: B1; assay: self-cleavage kobs at 160 uM GlcN6P; higher = faster cleavage; RNA array
How it was run: as §1

glucosamine-6-phosphate [5] = variants of: B1; assay: self-cleavage kobs at 640 uM GlcN6P; higher = faster cleavage; RNA array
How it was run: as §1

glucosamine-6-phosphate [6] = variants of: B1; assay: self-cleavage kobs at 2500 uM GlcN6P; higher = faster cleavage; RNA array
How it was run: as §1

glucosamine-6-phosphate [7] = variants of: B1; assay: self-cleavage kobs at 10000 uM GlcN6P; higher = faster cleavage; RNA array
How it was run: as §1

G13C U31C
kcat (glucosamine-6-phosphate [1]): 0.0015 ± 0.00033 s⁻¹ | KM (glucosamine-6-phosphate [2]): 3460 ± 1200 µM | self-cleavage kobs at 40 uM GlcN6P (glucosamine-6-phosphate [3]): 3.14e-05 ± 1e-05 s⁻¹ | self-cleavage kobs at 160 uM GlcN6P (glucosamine-6-phosphate [4]): 0.000104 ± 4.3e-05 s⁻¹ | self-cleavage kobs at 640 uM GlcN6P (glucosamine-6-phosphate [5]): 0.000211 ± 2.9e-05 s⁻¹ | self-cleavage kobs at 2500 uM GlcN6P (glucosamine-6-phosphate [6]): 0.000748 ± 0.00013 s⁻¹ | self-cleavage kobs at 10000 uM GlcN6P (glucosamine-6-phosphate [7]): 0.00109 ± 0.00014 s⁻¹

A48U U55A
kcat (glucosamine-6-phosphate [1]): 0.000475 ± 0.0001 s⁻¹ | KM (glucosamine-6-phosphate [2]): 1310 ± 530 µM | self-cleavage kobs at 160 uM GlcN6P (glucosamine-6-phosphate [4]): 4.63e-05 ± 1.3e-05 s⁻¹ | self-cleavage kobs at 640 uM GlcN6P (glucosamine-6-phosphate [5]): 0.000183 ± 2.7e-05 s⁻¹ | self-cleavage kobs at 2500 uM GlcN6P (glucosamine-6-phosphate [6]): 0.000269 ± 3.9e-05 s⁻¹ | self-cleavage kobs at 10000 uM GlcN6P (glucosamine-6-phosphate [7]): 0.000532 ± 0.0001 s⁻¹

A42G U54A
kcat (glucosamine-6-phosphate [1]): 0.0214 ± 0.0099 s⁻¹ | self-cleavage kobs at 40 uM GlcN6P (glucosamine-6-phosphate [3]): 0.000967 ± 0.00013 s⁻¹ | self-cleavage kobs at 160 uM GlcN6P (glucosamine-6-phosphate [4]): 0.00396 ± 0.0011 s⁻¹ | self-cleavage kobs at 640 uM GlcN6P (glucosamine-6-phosphate [5]): 0.029 ± 0.0057 s⁻¹ | self-cleavage kobs at 10000 uM GlcN6P (glucosamine-6-phosphate [7]): 0.0172 ± 0.004 s⁻¹

A39U G59A
kcat (glucosamine-6-phosphate [1]): 2.27e-05 ± 2.6e-06 s⁻¹

A39G C58G C71A
kcat (glucosamine-6-phosphate [1]): 2.19e-05 ± 5.6e-06 s⁻¹

C50U C68A C71U
kcat (glucosamine-6-phosphate [1]): 2.67e-05 ± 9.8e-06 s⁻¹

A6G G32U
kcat (glucosamine-6-phosphate [1]): < 1e-05 s⁻¹ | self-cleavage kobs at 40 uM GlcN6P (glucosamine-6-phosphate [3]): < 1e-05 s⁻¹

A14G G41U
kcat (glucosamine-6-phosphate [1]): 0.00179 ± 0.00049 s⁻¹ | KM (glucosamine-6-phosphate [2]): 206 ± 99 µM | self-cleavage kobs at 40 uM GlcN6P (glucosamine-6-phosphate [3]): 0.00033 ± 4.5e-05 s⁻¹ | self-cleavage kobs at 160 uM GlcN6P (glucosamine-6-phosphate [4]): 0.000642 ± 0.00012 s⁻¹ | self-cleavage kobs at 640 uM GlcN6P (glucosamine-6-phosphate [5]): 0.00124 ± 0.00021 s⁻¹ | self-cleavage kobs at 2500 uM GlcN6P (glucosamine-6-phosphate [6]): 0.00232 ± 0.00045 s⁻¹

G13C A53U
kcat (glucosamine-6-phosphate [1]): 0.000137 ± 1.4e-05 s⁻¹ | KM (glucosamine-6-phosphate [2]): 5250 ± 1300 µM | self-cleavage kobs at 2500 uM GlcN6P (glucosamine-6-phosphate [6]): 4.93e-05 ± 1.6e-05 s⁻¹ | self-cleavage kobs at 10000 uM GlcN6P (glucosamine-6-phosphate [7]): 8.95e-05 ± 1.3e-05 s⁻¹

G37C A64U C68G
kcat (glucosamine-6-phosphate [1]): 1.68e-05 ± 1.7e-06 s⁻¹ | KM (glucosamine-6-phosphate [2]): 29.1 ± 13 µM

G40U U49G C71G
kcat (glucosamine-6-phosphate [1]): 0.000114 ± 2.6e-05 s⁻¹ | self-cleavage kobs at 2500 uM GlcN6P (glucosamine-6-phosphate [6]): 8.01e-05 ± 2.8e-05 s⁻¹ | self-cleavage kobs at 10000 uM GlcN6P (glucosamine-6-phosphate [7]): 9.53e-05 ± 1.8e-05 s⁻¹

A12U G29U G59U C68G C70A
kcat (glucosamine-6-phosphate [1]): 3.34e-05 ± 1.4e-05 s⁻¹ | self-cleavage kobs at 640 uM GlcN6P (glucosamine-6-phosphate [5]): 4.93e-05 ± 2.3e-05 s⁻¹

U31G A53U
kcat (glucosamine-6-phosphate [1]): 0.019 ± 0.0084 s⁻¹ | self-cleavage kobs at 40 uM GlcN6P (glucosamine-6-phosphate [3]): 0.000188 ± 3e-05 s⁻¹ | self-cleavage kobs at 640 uM GlcN6P (glucosamine-6-phosphate [5]): 0.00281 ± 0.00087 s⁻¹ | self-cleavage kobs at 2500 uM GlcN6P (glucosamine-6-phosphate [6]): 0.00587 ± 0.002 s⁻¹ | self-cleavage kobs at 10000 uM GlcN6P (glucosamine-6-phosphate [7]): 0.0128 ± 0.0024 s⁻¹

U31C G32A
kcat (glucosamine-6-phosphate [1]): 0.0022 ± 0.00058 s⁻¹ | KM (glucosamine-6-phosphate [2]): 6580 ± 2400 µM | self-cleavage kobs at 40 uM GlcN6P (glucosamine-6-phosphate [3]): 4.27e-05 ± 1.5e-05 s⁻¹ | self-cleavage kobs at 160 uM GlcN6P (glucosamine-6-phosphate [4]): 6.8e-05 ± 1.3e-05 s⁻¹ | self-cleavage kobs at 640 uM GlcN6P (glucosamine-6-phosphate [5]): 0.000179 ± 2.1e-05 s⁻¹ | self-cleavage kobs at 2500 uM GlcN6P (glucosamine-6-phosphate [6]): 0.000604 ± 7.5e-05 s⁻¹ | self-cleavage kobs at 10000 uM GlcN6P (glucosamine-6-phosphate [7]): 0.00134 ± 0.00014 s⁻¹

A14C U30C
kcat (glucosamine-6-phosphate [1]): 1.53e-05 ± 3.1e-07 s⁻¹ | KM (glucosamine-6-phosphate [2]): 151 ± 50 µM | self-cleavage kobs at 160 uM GlcN6P (glucosamine-6-phosphate [4]): < 1e-05 s⁻¹

A12U C71G
kcat (glucosamine-6-phosphate [1]): 0.00158 ± 0.00072 s⁻¹ | self-cleavage kobs at 40 uM GlcN6P (glucosamine-6-phosphate [3]): 0.000203 ± 2.3e-05 s⁻¹ | self-cleavage kobs at 160 uM GlcN6P (glucosamine-6-phosphate [4]): 0.000316 ± 5.2e-05 s⁻¹ | self-cleavage kobs at 640 uM GlcN6P (glucosamine-6-phosphate [5]): 0.00125 ± 0.00015 s⁻¹ | self-cleavage kobs at 2500 uM GlcN6P (glucosamine-6-phosphate [6]): 0.000947 ± 0.00021 s⁻¹ | self-cleavage kobs at 10000 uM GlcN6P (glucosamine-6-phosphate [7]): 0.00305 ± 0.00048 s⁻¹

G29C U45C
kcat (glucosamine-6-phosphate [1]): 0.000137 ± 2.1e-05 s⁻¹ | KM (glucosamine-6-phosphate [2]): 2120 ± 930 µM | self-cleavage kobs at 2500 uM GlcN6P (glucosamine-6-phosphate [6]): 9.03e-05 ± 2e-05 s⁻¹ | self-cleavage kobs at 10000 uM GlcN6P (glucosamine-6-phosphate [7]): 0.000108 ± 1.8e-05 s⁻¹

A53G C61U
kcat (glucosamine-6-phosphate [1]): 2.57e-05 ± 1e-06 s⁻¹ | self-cleavage kobs at 40 uM GlcN6P (glucosamine-6-phosphate [3]): < 1e-05 s⁻¹

A15U U30C
kcat (glucosamine-6-phosphate [1]): 0.000145 ± 1.2e-05 s⁻¹ | KM (glucosamine-6-phosphate [2]): 2410 ± 450 µM | self-cleavage kobs at 640 uM GlcN6P (glucosamine-6-phosphate [5]): 3.48e-05 ± 6.3e-06 s⁻¹ | self-cleavage kobs at 2500 uM GlcN6P (glucosamine-6-phosphate [6]): 6.99e-05 ± 6.6e-06 s⁻¹ | self-cleavage kobs at 10000 uM GlcN6P (glucosamine-6-phosphate [7]): 0.00012 ± 1.1e-05 s⁻¹
